Test results reported in US20200123267A1 (Genentech, published 2020).
Substitutions are numbered along the chain they refer to. Names and notes keep the numbering of the source. Values belong to the binder of their own block, whether it stands above or below them.

Tests used:
[1] = biological target: Human TfR extracellular domain containing an N-terminal His tag (human) (UniProt P02786); experiment: SPR, monovalent, TfR captured via anti-His, bispecific injected
[2] = biological target: Human TfR extracellular domain containing an N-terminal His tag (human) (UniProt P02786); experiment: SPR, bispecific antibody
[3] = biological target: T1, TfR (species and construct not stated, Table 13) (Homo sapiens (Human), UniProt P02786 89-760); experiment: kinetic measurement, method not stated
T1 construct: not shown: N-terminal His tag of the soluble TfR ecd construct
T1 sequence (P02786 89-760 G142S limits assumed): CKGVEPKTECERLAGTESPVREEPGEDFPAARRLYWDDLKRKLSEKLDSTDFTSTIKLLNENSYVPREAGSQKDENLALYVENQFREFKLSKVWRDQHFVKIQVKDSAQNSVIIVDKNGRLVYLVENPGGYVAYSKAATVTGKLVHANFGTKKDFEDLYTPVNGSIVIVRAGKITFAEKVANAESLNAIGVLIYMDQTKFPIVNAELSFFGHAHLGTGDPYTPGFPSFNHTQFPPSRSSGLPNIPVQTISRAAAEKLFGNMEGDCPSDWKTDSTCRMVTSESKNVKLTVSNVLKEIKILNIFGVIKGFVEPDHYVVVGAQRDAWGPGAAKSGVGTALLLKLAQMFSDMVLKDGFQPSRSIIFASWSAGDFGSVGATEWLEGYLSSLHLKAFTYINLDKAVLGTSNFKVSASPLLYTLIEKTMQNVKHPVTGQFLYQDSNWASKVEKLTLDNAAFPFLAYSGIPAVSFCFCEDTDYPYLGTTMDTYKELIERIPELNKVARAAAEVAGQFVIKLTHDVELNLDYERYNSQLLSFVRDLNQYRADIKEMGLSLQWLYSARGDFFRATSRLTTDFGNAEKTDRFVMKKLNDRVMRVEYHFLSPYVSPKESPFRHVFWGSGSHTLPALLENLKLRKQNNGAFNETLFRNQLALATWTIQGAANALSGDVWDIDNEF

Chain of Human TfR extracellular domain containing an N-terminal His tag (human) (P02786 89-760 G142S): as the sequence (P02786 89-760 G142S limits assumed) above

- Kd [1]: 295 nM
- koff [1]: 0.0377 s⁻¹
- kon [1]: 128000 M⁻¹ s⁻¹
- Kd [2]: 270 nM
B1: anti-TfR^2/BACE1 bispecific antibody (15G11.W92A arm, human IgG1 D265A N297G, knob in hole) (bispecific antibody, part only; not given: Anti-BACE1 arm and constant regions, V domains shown, not shown: another chain or arm of the molecule; a dimerising Fc or GST; small tags and cut ends)
VH: EVQLVQSGAEVKKPGASVKVSCKASGYTFTSYWMHWVRQAPGQRLEWIGEINPTNGRTNYIEKFKSRATLTVDKSASTAYMELSSLRSEDTAVYYCARGTRAYHYWGQGTMVTVSS
VL: DIQMTQSPSSLSASVGDRVTITCRASDNLYSNLAWYQQKPGKSPKLLVYDATNLADGVPSRFSGSGSGTDYTLTISSLQPEDFATYYCQHFAGTPLTFGQGTKVEIK

- koff [3]: 0.0231 s⁻¹
- kon [3]: 320000 M⁻¹ s⁻¹
B2: antiTfR.52A.M108L.Fab (Fab, V domains shown)
VH: B1 VH with N52A, M111L
VL: B1 VL with A92W
notes: Fab; also called anti-TfR Fab comprising the M108L mutation

- Kd [2]: 10 nM
B3: anti-TfR^1/BACE1 bispecific antibody (15G11.v5 arm, human IgG1 D265A N297G, knob in hole) (bispecific antibody, part only; not given: Anti-BACE1 arm and constant regions, V domains shown, not shown: another chain or arm of the molecule; a dimerising Fc or GST; small tags and cut ends)
VH: B1 VH
VL: B1 VL with A92W

- koff [3]: 0.0204 s⁻¹
- kon [3]: 371000 M⁻¹ s⁻¹
B4: Hu15G11.HC52A Fab (Fab, V domains shown)
VH: B1 VH with N52A
VL: B1 VL with A92W
notes: Fab; also called antiTfR.52A.Fab; 15G11.52A Fab
